Measured values as given in WO2007014992A2 (dated 2007).

Target: T1, human LDL (Low Density Lipoprotein) receptor (human, UniProt P01130 22-860)
T1 construct: whole, on cells; Endogenous receptor on human A549 and MDA-MB-231 cells (flow cytometry); also called LDL-R; human LDL-R
Experiment: Western blot of total protein extracts of MDA-MB-231 cells

T1 sequence (P01130 22-860): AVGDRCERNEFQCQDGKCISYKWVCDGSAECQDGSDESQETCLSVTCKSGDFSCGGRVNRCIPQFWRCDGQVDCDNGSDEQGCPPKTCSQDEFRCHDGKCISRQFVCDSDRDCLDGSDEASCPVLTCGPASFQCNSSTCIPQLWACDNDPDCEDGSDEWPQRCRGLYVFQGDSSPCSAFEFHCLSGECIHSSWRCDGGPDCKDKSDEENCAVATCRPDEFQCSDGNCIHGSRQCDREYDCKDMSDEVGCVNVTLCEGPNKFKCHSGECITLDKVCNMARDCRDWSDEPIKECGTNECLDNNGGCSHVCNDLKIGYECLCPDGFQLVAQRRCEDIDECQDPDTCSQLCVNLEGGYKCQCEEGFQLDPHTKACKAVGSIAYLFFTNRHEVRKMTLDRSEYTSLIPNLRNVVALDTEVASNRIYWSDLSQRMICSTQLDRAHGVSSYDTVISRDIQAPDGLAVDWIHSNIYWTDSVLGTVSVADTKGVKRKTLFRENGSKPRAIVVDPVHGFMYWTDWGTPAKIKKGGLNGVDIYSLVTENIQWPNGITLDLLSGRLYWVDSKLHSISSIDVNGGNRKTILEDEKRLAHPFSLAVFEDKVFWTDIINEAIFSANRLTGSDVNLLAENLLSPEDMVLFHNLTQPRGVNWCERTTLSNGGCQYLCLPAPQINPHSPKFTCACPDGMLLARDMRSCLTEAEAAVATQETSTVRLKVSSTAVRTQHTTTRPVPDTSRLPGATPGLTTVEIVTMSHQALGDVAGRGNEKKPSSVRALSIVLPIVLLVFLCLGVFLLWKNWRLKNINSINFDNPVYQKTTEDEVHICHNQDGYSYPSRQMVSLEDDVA

binding result: binds
B1: Anti-LDL-R 5E5 monoclonal antibody produced by the hybridoma H5E5 (CNCM I-3488) (antibody, V domains shown)
VH: QVQLQQSGPELVRPGVSVKISCKGSGYTFTDYAMHWVKQSHAQSLEWIGFISTYSGNTNYNQKFKGRATMTVDKSSSTAYMELARLTSEDSAIYYCARPNYYGSSPGGFAYWGQGTLVTVSA
VL: ENVLTQSPAIMSASLGEKVTMSCRARSSVNYMYWYQQKSDASPKLWIYYTSNLAPGVPARFSGSGSGNSYSLTISSMEGEDAATYYCQQFTSSPSFGGGTKLEIK
notes: also called anti-LDL-R 5E5 antibodies; murine antibody 5E5
